To fix the notation:
B1: CIgG4F3A1(G4S)2 (Fc fusion)
chain 1: GPPCPPCPAPEFLGGPSVFLFPPKPKDTLMISRTPEVTCVVVDVSQEDPEVQFNWYVDGVEVHNAKTKPREEQFNSTYRVVSVLTVLHQDWLNGKEYKCKVSNKGLPSSIEKTISKAKGQPREPQVYTLPPCQEEMTKNQVSLWCLVKGFYPSDIAVEWESNGQPENNYKTTPPVLDSDGSFFLYSRLTVDKSRWQEGNVFSCSVMHEALHNHYTQKSLSLSLGKGGGGSGGGGSDVQLQESGGGLVQAGGSLKLSCAASRGSLSRWDVAWFRQAPGKERSFVTRISWSGTTSYYADAVKGRFAISRDNAKNTVYLQMNSLKPEDTAVYYCAVALYGNRGYYDVNAHSYWGQGTQVTVS
chain 2: GPPCPPCPAPEFLGGPSVFLFPPKPKDTLMISRTPEVTCVVVDVSQEDPEVQFNWYVDGVEVHNAKTKPREEQFNSTYRVVSVLTVLHQDWLNGKEYKCKVSNKGLPSSIEKTISKAKGQPREPQVCTLPPSQEEMTKNQVSLSCAVKGFYPSDIAVEWESNGQPENNYKTTPPVLDSDGSFFLVSRLTVDKSRWQEGNVFSCSVMHEALHNHYTQKSLSLSLGKGGGGSGGGGSEVQLLESGGGLVQPGGSLRLSCAASGFTFGNYDMAWVRQAPGKRPEWVSSIDTGGDITHYADSVKGRFTISRDNAKNTLYLQMNSLRPEDTAVYWCATDEEYALGPNEFDYYGQGTLVTVSS
B2: NIgG4F4A1(G4S)1 (Fc fusion)
chain 1: DVQLQESGGGLVQAGGSLRLSCAVSGLSFSSMGWFRQPPGKEREFVAAISLYSGSTYYADSVKGRFTISSDNAKSTVYLQMNSLKPEDAAVYFCAADRQRTWSTFYASRQATYNYWGQGTQVTVTSGGGGSGPPCPPCPAPEFLGGPSVFLFPPKPKDTLMISRTPEVTCVVVDVSQEDPEVQFNWYVDGVEVHNAKTKPREEQFNSTYRVVSVLTVLHQDWLNGKEYKCKVSNKGLPSSIEKTISKAKGQPREPQVYTLPPCQEEMTKNQVSLWCLVKGFYPSDIAVEWESNGQPENNYKTTPPVLDSDGSFFLYSRLTVDKSRWQEGNVFSCSVMHEALHNHYTQKSLSLSLGK
chain 2: EVQLLESGGGLVQPGGSLRLSCAASGFTFGNYDMAWVRQAPGKRPEWVSSIDTGGDITHYADSVKGRFTISRDNAKNTLYLQMNSLRPEDTAVYWCATDEEYALGPNEFDYYGQGTLVTVSSGGGGSGPPCPPCPAPEFLGGPSVFLFPPKPKDTLMISRTPEVTCVVVDVSQEDPEVQFNWYVDGVEVHNAKTKPREEQFNSTYRVVSVLTVLHQDWLNGKEYKCKVSNKGLPSSIEKTISKAKGQPREPQVCTLPPSQEEMTKNQVSLSCAVKGFYPSDIAVEWESNGQPENNYKTTPPVLDSDGSFFLVSRLTVDKSRWQEGNVFSCSVMHEALHNHYTQKSLSLSLGK
B3: NIgG4F4A1(G4S)2 (Fc fusion)
chain 1: DVQLQESGGGLVQAGGSLRLSCAVSGLSFSSMGWFRQPPGKEREFVAAISLYSGSTYYADSVKGRFTISSDNAKSTVYLQMNSLKPEDAAVYFCAADRQRTWSTFYASRQATYNYWGQGTQVTVTSGGGGSGGGGSGPPCPPCPAPEFLGGPSVFLFPPKPKDTLMISRTPEVTCVVVDVSQEDPEVQFNWYVDGVEVHNAKTKPREEQFNSTYRVVSVLTVLHQDWLNGKEYKCKVSNKGLPSSIEKTISKAKGQPREPQVYTLPPCQEEMTKNQVSLWCLVKGFYPSDIAVEWESNGQPENNYKTTPPVLDSDGSFFLYSRLTVDKSRWQEGNVFSCSVMHEALHNHYTQKSLSLSLGK
chain 2: EVQLLESGGGLVQPGGSLRLSCAASGFTFGNYDMAWVRQAPGKRPEWVSSIDTGGDITHYADSVKGRFTISRDNAKNTLYLQMNSLRPEDTAVYWCATDEEYALGPNEFDYYGQGTLVTVSSGGGGSGGGGSGPPCPPCPAPEFLGGPSVFLFPPKPKDTLMISRTPEVTCVVVDVSQEDPEVQFNWYVDGVEVHNAKTKPREEQFNSTYRVVSVLTVLHQDWLNGKEYKCKVSNKGLPSSIEKTISKAKGQPREPQVCTLPPSQEEMTKNQVSLSCAVKGFYPSDIAVEWESNGQPENNYKTTPPVLDSDGSFFLVSRLTVDKSRWQEGNVFSCSVMHEALHNHYTQKSLSLSLGK
B4: CIgG4F3A1(G4S)1 (Fc fusion)
chain 1: GPPCPPCPAPEFLGGPSVFLFPPKPKDTLMISRTPEVTCVVVDVSQEDPEVQFNWYVDGVEVHNAKTKPREEQFNSTYRVVSVLTVLHQDWLNGKEYKCKVSNKGLPSSIEKTISKAKGQPREPQVYTLPPCQEEMTKNQVSLWCLVKGFYPSDIAVEWESNGQPENNYKTTPPVLDSDGSFFLYSRLTVDKSRWQEGNVFSCSVMHEALHNHYTQKSLSLSLGKGGGGSDVQLQESGGGLVQAGGSLKLSCAASRGSLSRWDVAWFRQAPGKERSFVTRISWSGTTSYYADAVKGRFAISRDNAKNTVYLQMNSLKPEDTAVYYCAVALYGNRGYYDVNAHSYWGQGTQVTVS
chain 2: GPPCPPCPAPEFLGGPSVFLFPPKPKDTLMISRTPEVTCVVVDVSQEDPEVQFNWYVDGVEVHNAKTKPREEQFNSTYRVVSVLTVLHQDWLNGKEYKCKVSNKGLPSSIEKTISKAKGQPREPQVCTLPPSQEEMTKNQVSLSCAVKGFYPSDIAVEWESNGQPENNYKTTPPVLDSDGSFFLVSRLTVDKSRWQEGNVFSCSVMHEALHNHYTQKSLSLSLGKGGGGSEVQLLESGGGLVQPGGSLRLSCAASGFTFGNYDMAWVRQAPGKRPEWVSSIDTGGDITHYADSVKGRFTISRDNAKNTLYLQMNSLRPEDTAVYWCATDEEYALGPNEFDYYGQGTLVTVSS
B5: NIgG4F4A1(RS) (Fc fusion)
chain 1: DVQLQESGGGLVQAGGSLRLSCAVSGLSFSSMGWFRQPPGKEREFVAAISLYSGSTYYADSVKGRFTISSDNAKSTVYLQMNSLKPEDAAVYFCAADRQRTWSTFYASRQATYNYWGQGTQVTVTSRSGPPCPPCPAPEFLGGPSVFLFPPKPKDTLMISRTPEVTCVVVDVSQEDPEVQFNWYVDGVEVHNAKTKPREEQFNSTYRVVSVLTVLHQDWLNGKEYKCKVSNKGLPSSIEKTISKAKGQPREPQVYTLPPCQEEMTKNQVSLWCLVKGFYPSDIAVEWESNGQPENNYKTTPPVLDSDGSFFLYSRLTVDKSRWQEGNVFSCSVMHEALHNHYTQKSLSLSLGK
chain 2: EVQLLESGGGLVQPGGSLRLSCAASGFTFGNYDMAWVRQAPGKRPEWVSSIDTGGDITHYADSVKGRFTISRDNAKNTLYLQMNSLRPEDTAVYWCATDEEYALGPNEFDYYGQGTLVTVSSRSGPPCPPCPAPEFLGGPSVFLFPPKPKDTLMISRTPEVTCVVVDVSQEDPEVQFNWYVDGVEVHNAKTKPREEQFNSTYRVVSVLTVLHQDWLNGKEYKCKVSNKGLPSSIEKTISKAKGQPREPQVCTLPPSQEEMTKNQVSLSCAVKGFYPSDIAVEWESNGQPENNYKTTPPVLDSDGSFFLVSRLTVDKSRWQEGNVFSCSVMHEALHNHYTQKSLSLSLGK
B6: CIgG4F3A1(G4S)3 (Fc fusion)
chain 1: GPPCPPCPAPEFLGGPSVFLFPPKPKDTLMISRTPEVTCVVVDVSQEDPEVQFNWYVDGVEVHNAKTKPREEQFNSTYRVVSVLTVLHQDWLNGKEYKCKVSNKGLPSSIEKTISKAKGQPREPQVYTLPPCQEEMTKNQVSLWCLVKGFYPSDIAVEWESNGQPENNYKTTPPVLDSDGSFFLYSRLTVDKSRWQEGNVFSCSVMHEALHNHYTQKSLSLSLGKGGGGSGGGGSGGGGSDVQLQESGGGLVQAGGSLKLSCAASRGSLSRWDVAWFRQAPGKERSFVTRISWSGTTSYYADAVKGRFAISRDNAKNTVYLQMNSLKPEDTAVYYCAVALYGNRGYYDVNAHSYWGQGTQVTVS
chain 2: GPPCPPCPAPEFLGGPSVFLFPPKPKDTLMISRTPEVTCVVVDVSQEDPEVQFNWYVDGVEVHNAKTKPREEQFNSTYRVVSVLTVLHQDWLNGKEYKCKVSNKGLPSSIEKTISKAKGQPREPQVCTLPPSQEEMTKNQVSLSCAVKGFYPSDIAVEWESNGQPENNYKTTPPVLDSDGSFFLVSRLTVDKSRWQEGNVFSCSVMHEALHNHYTQKSLSLSLGKGGGGSGGGGSGGGGSEVQLLESGGGLVQPGGSLRLSCAASGFTFGNYDMAWVRQAPGKRPEWVSSIDTGGDITHYADSVKGRFTISRDNAKNTLYLQMNSLRPEDTAVYWCATDEEYALGPNEFDYYGQGTLVTVSS

As a reminder, the EC50 is the concentration that produces a half-maximal response.

In the assay the target is mixture of three Der p 2 specific recombinant human IgE clones H10, H12, P4E (human) (UniProt P01854). Kind of assay: RBL-SX38 IgE displacement, FACS.
Sequence of mixture of three Der p 2 specific recombinant human IgE clones H10, H12, P4E (human) (P01854 other isoform, or with tags, fused parts or gaps): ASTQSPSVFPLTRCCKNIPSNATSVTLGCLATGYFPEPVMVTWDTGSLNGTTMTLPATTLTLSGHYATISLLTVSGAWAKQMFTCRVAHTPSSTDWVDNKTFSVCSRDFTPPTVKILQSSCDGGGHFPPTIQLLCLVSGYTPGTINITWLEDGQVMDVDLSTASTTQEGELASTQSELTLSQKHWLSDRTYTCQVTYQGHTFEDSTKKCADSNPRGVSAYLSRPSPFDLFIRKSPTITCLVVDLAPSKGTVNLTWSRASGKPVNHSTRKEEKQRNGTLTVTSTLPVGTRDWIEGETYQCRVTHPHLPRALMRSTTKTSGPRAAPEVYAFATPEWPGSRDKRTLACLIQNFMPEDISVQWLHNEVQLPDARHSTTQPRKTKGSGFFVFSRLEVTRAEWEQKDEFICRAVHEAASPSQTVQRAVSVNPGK
As to B1, the Max effect/effect 1 µM was determined as 0%.

With B2, the EC50 came to 21.6 nM and the Max effect/effect 1 µM is 100%.

As for B3, the EC50 was 21.1 nM and the Max effect/effect 1 µM came out at 97%.

On to B4, for which the Max effect/effect 1 µM stood at 35%.

Turning to B5, the EC50 was found to be 331 nM and the Max effect/effect 1 µM was 74%.

On to B6, for which the Max effect/effect 1 µM stood at 2%.
